Square brackets hold non-standard residues; d marks the D form. Ends that are not written are not given here. Ahx = NCCCCCC(=O)O
T1: native IL-5R a/β complex on TF-1 cells (human, UniProt Q01344 21-420; P32927 17-897)
T1 sequence (looked up) 1: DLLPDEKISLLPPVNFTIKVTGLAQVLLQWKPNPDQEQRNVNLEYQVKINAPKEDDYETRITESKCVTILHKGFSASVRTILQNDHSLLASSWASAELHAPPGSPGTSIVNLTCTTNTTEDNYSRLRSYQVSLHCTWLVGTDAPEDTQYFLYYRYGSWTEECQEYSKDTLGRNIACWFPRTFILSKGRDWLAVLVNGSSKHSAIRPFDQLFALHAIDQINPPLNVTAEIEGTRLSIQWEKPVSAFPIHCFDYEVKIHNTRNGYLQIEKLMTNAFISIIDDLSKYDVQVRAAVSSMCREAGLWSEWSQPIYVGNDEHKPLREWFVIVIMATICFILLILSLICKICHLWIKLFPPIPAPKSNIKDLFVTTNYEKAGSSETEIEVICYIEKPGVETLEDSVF
T1 sequence (looked up) 2: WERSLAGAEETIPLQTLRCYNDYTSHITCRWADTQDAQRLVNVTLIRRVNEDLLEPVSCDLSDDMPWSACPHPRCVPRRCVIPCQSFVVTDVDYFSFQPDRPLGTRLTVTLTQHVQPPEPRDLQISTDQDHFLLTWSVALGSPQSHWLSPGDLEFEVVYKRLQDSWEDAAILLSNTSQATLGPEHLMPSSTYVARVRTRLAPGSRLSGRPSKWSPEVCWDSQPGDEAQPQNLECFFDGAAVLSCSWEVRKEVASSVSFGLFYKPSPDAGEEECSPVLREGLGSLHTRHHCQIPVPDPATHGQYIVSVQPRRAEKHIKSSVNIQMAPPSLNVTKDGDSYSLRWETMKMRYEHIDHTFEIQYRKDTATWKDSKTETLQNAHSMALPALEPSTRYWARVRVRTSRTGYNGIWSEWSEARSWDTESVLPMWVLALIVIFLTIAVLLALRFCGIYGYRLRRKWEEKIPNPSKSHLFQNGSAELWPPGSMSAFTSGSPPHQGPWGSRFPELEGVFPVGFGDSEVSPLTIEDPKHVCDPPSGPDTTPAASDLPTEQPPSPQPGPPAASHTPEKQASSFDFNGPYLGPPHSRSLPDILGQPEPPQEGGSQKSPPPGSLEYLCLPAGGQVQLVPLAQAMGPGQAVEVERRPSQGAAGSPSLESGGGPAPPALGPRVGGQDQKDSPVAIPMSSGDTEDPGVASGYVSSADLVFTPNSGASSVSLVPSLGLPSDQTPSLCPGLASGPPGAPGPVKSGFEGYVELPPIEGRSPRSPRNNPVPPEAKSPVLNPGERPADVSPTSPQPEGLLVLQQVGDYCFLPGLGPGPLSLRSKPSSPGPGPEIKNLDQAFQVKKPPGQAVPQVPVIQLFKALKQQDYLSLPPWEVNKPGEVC

T2: IL-5RaECD (the extracellular domain (ECD) of the human IL-5 receptor a chain) (human, UniProt Q01344 21-342, extensively glycosylated)
T2 construct: extracellular domain; also called IL-5RαECD; soluble IL-5Ra
T2 sequence (Q01344 21-342, looked up): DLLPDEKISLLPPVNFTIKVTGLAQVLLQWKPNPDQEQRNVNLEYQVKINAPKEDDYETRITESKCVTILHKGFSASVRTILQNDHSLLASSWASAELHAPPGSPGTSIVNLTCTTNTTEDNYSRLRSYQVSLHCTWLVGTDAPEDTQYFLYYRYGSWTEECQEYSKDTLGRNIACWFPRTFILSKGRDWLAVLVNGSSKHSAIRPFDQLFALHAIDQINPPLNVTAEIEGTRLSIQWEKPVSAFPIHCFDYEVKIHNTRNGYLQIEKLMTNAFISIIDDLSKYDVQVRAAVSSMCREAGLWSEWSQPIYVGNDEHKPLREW

B1: dimer of (Ac)-EGYVCVEWAACPTCR-(NH2) (peptide)
peptide: Ac-EGYVCVEWAACPTCR-NH2
modifications: disulfide (positions not given here); also: dimer, intramolecular and intermolecular disulfides, places not given here
B2: dimer of (H)-EGYVCVEWARCPTCR-(NH2) (peptide)
peptide: H-EGYVCVEWARCPTCR-NH2
modifications: disulfide (positions not given here); also: dimer, intramolecular and intermolecular disulfide linkages, places not given here
B3: dimer of (Ahx)-EGYVCVEWARCPTCR-(NH2) (peptide)
peptide: [Ahx]EGYVCVEWARCPTCR-NH2
modifications: disulfide (positions not given here); also: dimer, intramolecular and intermolecular disulfides, places not given here
B4: dimer of (Ac)-EGYVCVEWARCPTCK-(NH2) (peptide)
peptide: Ac-EGYVCVEWARCPTCK-NH2
modifications: disulfide (positions not given here); also: dimer, intramolecular and intermolecular disulfides, places not given here
B5: dimer of (H)-EGYVCVEWARCPTCG-(NH2) (peptide)
peptide: H-EGYVCVEWARCPTCG-NH2
modifications: disulfide (positions not given here); also: dimer, intramolecular and intermolecular disulfide linkages, places not given here
B6: dimer of (H)-EGYVCVEWARCPTCR-(OH) (peptide)
peptide: H-EGYVCVEWARCPTCR-OH
modifications: disulfide (positions not given here); also: dimer, intramolecular and intermolecular disulfide linkages, places not given here
B7: dimer of (H)-EGYVCVEWARCPTCK-(OH) (peptide)
peptide: H-EGYVCVEWARCPTCK-OH
modifications: disulfide (positions not given here); also: dimer, intramolecular and intermolecular disulfide linkages, places not given here
B8: dimer of (Ac)-EGYVCVEWARCPTCR-(NH2) (peptide)
peptide: Ac-EGYVCVEWARCPTCR-NH2
modifications: disulfide (positions not given here); also: dimer, intramolecular and intermolecular disulfides, places not given here
B9: dimer of (H)-GYVCVEWARCPTCR-(OH) (peptide)
peptide: H-GYVCVEWARCPTCR-OH
modifications: disulfide (positions not given here); also: dimer, intramolecular and intermolecular disulfide linkages, places not given here
B10: dimer of (H)-EGYVCVEFARCPTCR-(OH) (peptide)
peptide: H-EGYVCVEFARCPTCR-OH
modifications: disulfide (positions not given here); also: dimer, intramolecular and intermolecular disulfides, places not given here
B11: dimer of (H)-EGYVCVEFARCPTCR-(NH2) (peptide)
peptide: H-EGYVCVEFARCPTCR-NH2
modifications: disulfide (positions not given here); also: dimer, intramolecular and intermolecular disulfides, places not given here
B12: dimer of (H)-GYVCVEFARCPTCG-(NH2) (peptide)
peptide: H-GYVCVEFARCPTCG-NH2
modifications: disulfide (positions not given here); also: dimer, intramolecular and intermolecular disulfide linkages, places not given here
B13: dimer of (H)-EGYVCVEFARCPTCG-(NH2) (peptide)
peptide: H-EGYVCVEFARCPTCG-NH2
modifications: disulfide (positions not given here); also: dimer, intramolecular and intermolecular disulfides, places not given here

Molecular target: T1, native IL-5R a/β complex on TF-1 cells
Assay: cell-based or functional assay

Binder	Microphysiometer pIC50 (block of TF-1 cell response to IL-5)
B1	6.9 negative log of the molar IC50
B2	9.1 negative log of the molar IC50
B3	9 negative log of the molar IC50
B4	8.4 negative log of the molar IC50
B5	9.1 negative log of the molar IC50
B6	9.6 negative log of the molar IC50
B7	9.2 negative log of the molar IC50
B8	9.1 negative log of the molar IC50
B9	8.4 negative log of the molar IC50

Molecular target: T2, IL-5RaECD (the extracellular domain …)
Assay: competition with [125I] IL-5 for binding to IL-5Ra ECD; peptide assayed immediately after dissolving
Protocol: Binding affinities of synthetic peptides for IL-5Ra were measured in a competition binding assay using radio-iodinated IL-5. Immulon 4 (Dynatech) microtiter wells were coated with streptavidin (Sigma) by incubating 100 ul of a 50 ug/ml solution in PBS for 30 min. at 37. The wells were blocked with 200 ul of 1% BSA in PBS for 15 min. at 37, followed by 100 III of biotinylated monoclonal antibody, designated mAb 179, at 5 u. g/ml in PBS. Soluble IL-5Ra was then immobilized in the wells by incubating 100 µl of a solution of soluble receptor harvest diluted 1: 5000 in PBS/0.1% BSA for 1 hr. at 4. After washing away unbound receptor, 50 ul of various concentrations of test peptide diluted in PBS/0.1% BSA were added to the wells, followed by 50 µl of a fixed concentration of [₁₂₅I] IL-5 (Amersham). The binding reactions were incubated at 4 C for 2 hr, then washed with PBS to remove unbound [₁₂₅I] IL-5. Bound [₁₂₅I] IL-5 was determined by gamma counting.
Total binding was defined by the amount of [₁₂₅I] IL-5 bound in the absence of any competitor. Non-specific binding was defined by the amount of [₁₂₅I] IL-5 bound in the presence of 30 nM IL-5. Peptide binding data was analyzed to determine the peptide concentration required to reduce specific [₁₂₅I]

Binder	IC50
TGGGDGYVCVEWARCPTCK (three Cys in free sulfhydryl form, T0005 prints 32-50) [AF17362 (three cysteine residues in the free sulfhydryl form)]	120 nM

Molecular target: T2, IL-5RaECD (the extracellular domain …)
Assay: scintillation proximity competition assay, 20 pM [125I] IL-5, soluble IL-5Ra on beads; dimer of the printed monomer
Protocol: Binding affinities of synthetic peptides for IL-5Ra were measured in a scintillation proximity assay (SPA) using radio-iodinated IL-5. Streptavidin coated SPA beads (Amersham) were suspended in IL-5 binding buffer (phosphate buffered saline, 0.1% bovine serum albumin, 0.2% NaN3) at 2 mg beads/ml of buffer. Biotinylated mAb 179 was adsorbed onto the beads at a ratio of 2 ig Ab/mg beads by incubating the beads and antibody with agitation for at least 2 h. at 4. The beads were pelleted at 2500 rpm and resuspended at 2 mg/ml in binding buffer. Soluble IL-5Ra was then adsorbed onto the beads by diluting a solution of soluble receptor harvest 1:500 into the bead suspension and incubating with agitation for 2 hr at 4. The beads were again pelleted at 2500 rpm and resuspended at 2 mg/ml in binding buffer. Competition binding assays were carried out in 100p1 reactions in white polystyrene microtiter plates. These reactions contained 0.05 mg of receptor coated SPA beads, various concentrations of test peptide diluted in binding buffer, and 20 pM [₁₂₅I] IL-5 (Amersham). The plates were incubated at room temperature for 1 hour with agitation, then centrifuged for 5 min at 1500 rpm followed by scintillation counting on a Topcount instrument (Packard). Total binding was defined by the amount of [₁₂₅I] IL-5 bound in the absence of any competitor. Non-specific binding was defined by the amount of [₁₂₅I] IL-5 bound in the presence of 30 nM IL-5. Peptide binding data was analyzed to determine the peptide concentration required to reduce specific [₁₂₅I] IL-5 binding by 50% (IC₅₀). In each instance, the dimer has both intramolecular and intermolecular disulfide linkages as shown generically below: […]

Binder	SPA pIC50
B10	6.8 negative log of the molar IC50
B2	8.1 negative log of the molar IC50
B11	6.4 negative log of the molar IC50
B12	6.1 negative log of the molar IC50
B6	8.4 negative log of the molar IC50
B7	8.7 negative log of the molar IC50
B9	8.2 negative log of the molar IC50
B13	6.6 negative log of the molar IC50
